Substitutions are numbered along the chain they refer to.
Assays:
Test in all cases: BLI
[1] = target: T1, Full-length ETV4 Glu373Ala (UniProt P43268 1-484, Glu373Ala)
T1 sequence (looked up): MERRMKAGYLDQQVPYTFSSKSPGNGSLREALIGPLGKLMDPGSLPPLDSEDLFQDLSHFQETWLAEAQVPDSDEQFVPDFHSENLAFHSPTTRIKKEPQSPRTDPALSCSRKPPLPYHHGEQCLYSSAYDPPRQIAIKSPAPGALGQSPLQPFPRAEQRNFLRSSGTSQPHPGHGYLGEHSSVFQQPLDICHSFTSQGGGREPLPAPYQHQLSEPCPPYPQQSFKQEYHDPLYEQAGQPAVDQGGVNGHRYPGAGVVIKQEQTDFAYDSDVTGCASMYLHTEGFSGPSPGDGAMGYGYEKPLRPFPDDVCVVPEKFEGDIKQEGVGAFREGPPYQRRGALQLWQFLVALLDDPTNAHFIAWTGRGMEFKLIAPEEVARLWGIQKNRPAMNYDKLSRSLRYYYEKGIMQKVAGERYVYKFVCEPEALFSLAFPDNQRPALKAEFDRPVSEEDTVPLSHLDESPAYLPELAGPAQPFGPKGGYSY

[2] = target: T2, Full-length ETV4 Thr363Ala (UniProt P43268 1-484, Thr363Ala)
T2 sequence (looked up): T1 sequence (looked up) with T363A, A373E

[3] = target: T3, Full-length ETV4 Lys370Ala (UniProt P43268 1-484, Lys370Ala)
T3 sequence (looked up): T1 sequence (looked up) with K370A, A373E

[4] = target: T4, Full-length ETV4 (ETV4^1–484) (UniProt P43268 1-484)
T4 sequence (looked up): T1 sequence (looked up) with A373E

Full-length FOS = Full-length FOS (UniProt P01100 1-380)
Full-length FOS, sequence (P01100 whole entry): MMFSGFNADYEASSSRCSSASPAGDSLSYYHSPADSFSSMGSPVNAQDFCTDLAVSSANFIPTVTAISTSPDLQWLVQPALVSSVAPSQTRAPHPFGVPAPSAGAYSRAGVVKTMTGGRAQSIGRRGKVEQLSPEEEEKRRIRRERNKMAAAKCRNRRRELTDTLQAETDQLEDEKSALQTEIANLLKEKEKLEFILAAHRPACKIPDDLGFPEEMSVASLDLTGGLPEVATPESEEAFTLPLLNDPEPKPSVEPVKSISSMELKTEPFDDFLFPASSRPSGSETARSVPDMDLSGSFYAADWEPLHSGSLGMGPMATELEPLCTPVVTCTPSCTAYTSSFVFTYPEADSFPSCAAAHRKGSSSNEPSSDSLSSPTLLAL

binding result [1]: binds
binding result [2]: binds
binding result [3]: binds
Kd [4]: 5 nM
Kd (Full-length FOS): 9 nM
B1: MED25 ACID (residues 391–553), biotinylated ligand for biolayer interferometry (domain or fragment, human, UniProt Q71SY5 391-553, looked up)
chain: GQQSVSNKLLAWSGVLEWQEKPKPASVDANTKLTRSLPCQVYVNHGENLKTEQWPQKLIMQLIPQQLLTTLGPLFRNSRMVQFHFTNKDLESLKGLYRIMGNGFAGCVHFPHTAPCEVRVLMLLYSSKKKIFMGLIPYDQSGFVNGIRQVITNHKQVQQQKLE
modifications: biotin (biotinylated; D-biotin added at the induction point)

Reference: publication PMC5632138 (Journal of molecular biology, 2017)
